The source of these data is publication PMC8900818, “The suppressor of copper sensitivity protein C from Caulobacter crescentus is a trimeric disulfide isomerase that binds copper(I) with subpicomolar affinity” (Acta Crystallographica. Section D, Structural Biology, 2022).

Data set [1] deals with Caulobacter crescentus suppressor of copper sensitivity protein C, C2S variant (Caulobacter crescentus). Description: mass photometry; reduced proteins diluted to ~150 nM and added in 2 µl steps to 10 µl buffer (25 mM HEPES pH 7.5, 150 mM NaCl); Refeyn One; mass of the main peak against the monomer's mass.
The target is the same in data set [2]. Description: crystal structure; reduced CcScsC C2S at 130 mg/ml, 37-39% MPD, 0.02 M CaCl2, 0.2 M sodium acetate pH 7.25, 4°C; space group P63, one protomer per asymmetric unit, trimer by crystallographic symmetry.
Data set [3] addresses Caulobacter crescentus suppressor of copper sensitivity protein C, wild type (Caulobacter crescentus). Description: SEC-SAXS; inline SEC-SAXS (S200 5/150 GL) with sheath flow, 283 K, injection 5.6 mg/ml; molecular mass from the Porod volume. In general terms: In gel filtration, larger molecules generally elute earlier.
Data set [4] has the same target. The data set is described as follows: mass photometry; reduced proteins diluted to ~150 nM and added in 2 µl steps to 10 µl buffer (25 mM HEPES pH 7.5, 150 mM NaCl); Refeyn One; mass of the main peak against the monomer's mass.
The target of data set [5] is Proteus mirabilis ScsC (Proteus mirabilis). The description is as above.
Data set [6] concerns the molecule itself. Described as above.

As for “Caulobacter crescentus suppressor of copper sensitivity protein C, C2S variant (enzyme)”, the stoichiometry N in data set [1] and in data set [2] was 3 in each case.

In the case of “Caulobacter crescentus suppressor of copper sensitivity protein C, wild type (enzyme)”, the stoichiometry N in data set [3] and in data set [4] was 3 in each case.

As to Proteus mirabilis ScsC (enzyme), the stoichiometry N in data set [5] stood at 3.

B1: Escherichia coli DsbC (enzyme, UniProt P0AEG6 21-236, looked up)
chain: DDAAIQQTLAKMGIKSSDIQPAPVAGMKTVLTNSGVLYITDDGKHIIQGPMYDVSGTAPVNVTNKMLLKQLNALEKEMIVYKAPQEKHVITVFTDITCGYCHKLHEQMADYNALGITVRYLAFPRQGLDSDAEKEMKAIWCAKDKNKAFDDVMAGKSVAPASCDVDIADHYALGVQLGVSGTPAVVLSNGTLVPGYQPPKEMKEFLDEHQKMTSGK
notes: E. coli DsbC, UniProt P0AEG6; monomer printed as 24.1 kDa; Control protein of the mass photometry; Probably the mature protein without signal peptide; also called EcDsbC
For the molecule B1, the “stoichiometry N” value in data set [6] came to 2.

By stoichiometry N is commonly meant the number of molecules, sites or subunits per partner or assembly.
